The text below walks through data of doi:10.1101/2023.06.16.545308 (bioRxiv, 2023).

The target in assay [1] is T1, human transporter associated with antigen processing (TAP), heterodimer of TAP1 and TAP2 (human, UniProt Q03518;Q03519). The assay can be described thus: cryo-EM structure.
Assay [2] addresses T1, human transporter associated with …. The assay can be described thus: cryo-EM structure. The source holds these as a separate data set.

Where two headings read alike, the source gives them in different places.

T1 sequence (Q03518 whole entry, chain 1 of 2): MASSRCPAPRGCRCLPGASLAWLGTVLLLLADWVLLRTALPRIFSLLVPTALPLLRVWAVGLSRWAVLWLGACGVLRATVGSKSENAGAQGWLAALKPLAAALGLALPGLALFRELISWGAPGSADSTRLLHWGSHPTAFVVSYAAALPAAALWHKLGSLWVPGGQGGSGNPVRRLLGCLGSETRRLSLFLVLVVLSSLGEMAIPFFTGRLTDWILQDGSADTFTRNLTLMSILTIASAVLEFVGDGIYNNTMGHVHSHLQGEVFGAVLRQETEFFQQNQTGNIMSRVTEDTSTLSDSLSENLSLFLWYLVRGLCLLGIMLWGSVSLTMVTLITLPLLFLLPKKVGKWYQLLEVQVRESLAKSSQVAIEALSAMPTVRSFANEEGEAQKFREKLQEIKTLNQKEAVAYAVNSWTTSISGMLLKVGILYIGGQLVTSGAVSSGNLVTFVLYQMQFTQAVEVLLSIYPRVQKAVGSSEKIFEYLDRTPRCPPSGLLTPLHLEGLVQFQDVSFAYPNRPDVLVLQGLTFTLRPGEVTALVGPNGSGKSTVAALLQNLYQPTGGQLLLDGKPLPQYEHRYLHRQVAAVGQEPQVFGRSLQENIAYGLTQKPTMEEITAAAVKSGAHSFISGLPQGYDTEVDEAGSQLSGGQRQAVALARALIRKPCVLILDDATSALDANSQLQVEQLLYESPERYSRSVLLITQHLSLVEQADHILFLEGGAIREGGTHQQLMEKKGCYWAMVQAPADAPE
T1 sequence (Q03519 whole entry, chain 2 of 2): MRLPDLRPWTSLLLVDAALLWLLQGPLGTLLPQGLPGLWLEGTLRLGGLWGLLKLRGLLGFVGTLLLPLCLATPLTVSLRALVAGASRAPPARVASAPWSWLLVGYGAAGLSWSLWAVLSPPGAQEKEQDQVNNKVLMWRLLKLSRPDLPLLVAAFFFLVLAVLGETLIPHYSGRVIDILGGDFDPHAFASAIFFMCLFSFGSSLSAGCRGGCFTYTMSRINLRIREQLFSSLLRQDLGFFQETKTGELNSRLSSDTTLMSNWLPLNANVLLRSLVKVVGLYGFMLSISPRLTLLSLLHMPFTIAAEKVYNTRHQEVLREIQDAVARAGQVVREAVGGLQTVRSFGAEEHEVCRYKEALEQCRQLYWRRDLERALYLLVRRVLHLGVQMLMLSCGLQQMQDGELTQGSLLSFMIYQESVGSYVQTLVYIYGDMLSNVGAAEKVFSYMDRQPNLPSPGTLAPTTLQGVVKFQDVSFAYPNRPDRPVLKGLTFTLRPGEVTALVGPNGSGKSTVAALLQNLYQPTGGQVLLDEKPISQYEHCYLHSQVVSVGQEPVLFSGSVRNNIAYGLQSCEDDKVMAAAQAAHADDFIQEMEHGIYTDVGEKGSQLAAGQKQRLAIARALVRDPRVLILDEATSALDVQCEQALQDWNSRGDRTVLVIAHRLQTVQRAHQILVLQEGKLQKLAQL

B1: a2 peptide (9-mer presented by HLA-A2) (peptide)
peptide: ILKEPVHGV
B1: the binding result in assay [1] is reported as “binds”.

B2: b27’’ peptide (7-mer) (peptide)
peptide: RRYSTEL
For the molecule B2, the binding result in assay [2] is given as “binds”.

B3: b27 peptide (9-mer presented by HLA-B27) (peptide)
peptide: RRYQKSTEL
On to B3, for which the binding result in assay [1] was “binds”.
